The kon is a measure of how fast the partners come together. A low value points to slow association. As a reminder, the Km is the substrate concentration at which the rate is half of its maximum.

Series [1] has as its target KPf, chimeric protein of the ATPase domain of DnaK and the substrate binding domain of PfHsp70-1 (Escherichia coli | Plasmodium falciparum). Put plainly: SPR. (In general: In SPR one partner is held on a chip, and binding of the other changes the refractive index at the surface.)
Series [2] concerns Nc1ncnc2c1ncn2[C@@H]1O[C@H](COP(=O)(O)OP(=O)(O)OP(=O)(O)O)[C@@H](O)[C@H]1O. Put plainly: purified protein, by the assay type. Particulars: pH 7.5.
Procedure: Hsp70 proteins at final concentration of 0.4 μM were each incubated for 5 min in buffer HKMD (10 mM HEPES-KOH pH 7.5, 100 mM KCl, 2 mM MgCl2 and 0.5 mM DTT). The reaction was initiated by the addition of ATP at various concentrations (0–5 mM) and samples were analyzed every 30 min for 4 h.
Standard deviations shown represent three independent assays made using separate protein purification batches.
validated by one way ANOVA test (p< 0.05 *) and (p<0.01**).

Where “and” joins values, the source holds several entries; their conditions need not be identical. Equal values may be shown once.

“KPf, chimeric protein of the ATPase domain of DnaK and the substrate binding domain of PfHsp70-1”: the kon in series [1] is 154 M⁻¹ s⁻¹ and 132 M⁻¹ s⁻¹ and 142 M⁻¹ s⁻¹.

For the substance PfHsp70-1 (Plasmodium falciparum 3D7), the Km in series [2] worked out at 370.8 µM.
